# According to paper PMC11358422:
# Tests used:
# Experiment in all cases: ELISA
# hemoglobin = hemoglobin (UniProt P69905+P68871); conditions: 5' biotin, ELISA: suspension coated in 100 mM NaHCO3 pH 9.6, 5% CSA block, aptamer in Base Pair Aptamer Folding Buffer, washes 0.02% Tween-20 in PBS, microscopy: aptamer …
# gluten (gliadin) (wheat) = conditions: wheat flour suspension; 5' biotin; ELISA: suspension coated in 100 mM NaHCO3 pH 9.6, 5% CSA block, aptamer in Base Pair Aptamer Folding Buffer, washes 0.02% Tween-20 in PBS; microscopy: aptamer …
# [1] = molecular target: gelatin (collagen) (bovine skin) (UniProt P02453+P02465); conditions: gelatin suspension; 5' biotin; ELISA: suspension coated in 100 mM NaHCO3 pH 9.6, 5% CSA block, aptamer in Base Pair Aptamer Folding Buffer, washes 0.02% Tween-20 in PBS; microscopy: aptamer …
# Chain of gelatin (collagen) (bovine skin) (P02453 whole entry, chain 1 of 2): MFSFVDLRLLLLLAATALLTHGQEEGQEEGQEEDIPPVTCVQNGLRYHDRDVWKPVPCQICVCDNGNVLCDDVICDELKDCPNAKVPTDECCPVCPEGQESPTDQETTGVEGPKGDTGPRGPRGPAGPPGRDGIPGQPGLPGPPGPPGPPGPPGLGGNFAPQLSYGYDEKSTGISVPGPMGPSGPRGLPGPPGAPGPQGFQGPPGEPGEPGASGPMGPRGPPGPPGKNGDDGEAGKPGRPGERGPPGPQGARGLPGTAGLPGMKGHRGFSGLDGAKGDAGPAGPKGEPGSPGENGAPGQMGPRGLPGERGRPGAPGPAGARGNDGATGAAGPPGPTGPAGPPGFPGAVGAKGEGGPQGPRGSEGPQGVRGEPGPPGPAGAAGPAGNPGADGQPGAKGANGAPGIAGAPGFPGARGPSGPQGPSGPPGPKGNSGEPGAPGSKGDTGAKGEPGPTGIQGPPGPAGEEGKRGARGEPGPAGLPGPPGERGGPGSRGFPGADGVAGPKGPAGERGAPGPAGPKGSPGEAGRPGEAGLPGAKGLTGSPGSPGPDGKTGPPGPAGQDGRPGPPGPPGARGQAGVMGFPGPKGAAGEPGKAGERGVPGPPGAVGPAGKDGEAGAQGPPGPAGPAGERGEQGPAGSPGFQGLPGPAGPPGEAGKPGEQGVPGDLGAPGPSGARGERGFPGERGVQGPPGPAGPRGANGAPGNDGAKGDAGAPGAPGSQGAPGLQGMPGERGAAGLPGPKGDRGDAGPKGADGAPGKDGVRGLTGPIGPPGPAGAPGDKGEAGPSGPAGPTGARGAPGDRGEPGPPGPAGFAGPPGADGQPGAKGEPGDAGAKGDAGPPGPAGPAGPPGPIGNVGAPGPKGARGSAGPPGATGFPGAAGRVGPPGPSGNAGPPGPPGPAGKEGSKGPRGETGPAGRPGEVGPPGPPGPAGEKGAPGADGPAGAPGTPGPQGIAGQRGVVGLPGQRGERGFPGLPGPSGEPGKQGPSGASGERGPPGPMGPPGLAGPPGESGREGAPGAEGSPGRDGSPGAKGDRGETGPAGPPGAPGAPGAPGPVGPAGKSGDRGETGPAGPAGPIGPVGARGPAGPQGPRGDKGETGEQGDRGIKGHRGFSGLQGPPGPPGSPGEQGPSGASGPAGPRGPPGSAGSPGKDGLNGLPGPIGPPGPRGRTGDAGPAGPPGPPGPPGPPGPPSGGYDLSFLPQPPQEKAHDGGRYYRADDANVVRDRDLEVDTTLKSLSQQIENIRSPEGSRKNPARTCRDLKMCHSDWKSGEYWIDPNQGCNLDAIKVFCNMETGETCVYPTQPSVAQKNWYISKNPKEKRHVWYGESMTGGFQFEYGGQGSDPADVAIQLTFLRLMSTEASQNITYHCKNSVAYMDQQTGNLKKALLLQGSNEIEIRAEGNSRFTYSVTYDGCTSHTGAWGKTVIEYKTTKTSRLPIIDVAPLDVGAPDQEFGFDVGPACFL
# Chain of gelatin (collagen) (bovine skin) (P02465 whole entry, chain 2 of 2): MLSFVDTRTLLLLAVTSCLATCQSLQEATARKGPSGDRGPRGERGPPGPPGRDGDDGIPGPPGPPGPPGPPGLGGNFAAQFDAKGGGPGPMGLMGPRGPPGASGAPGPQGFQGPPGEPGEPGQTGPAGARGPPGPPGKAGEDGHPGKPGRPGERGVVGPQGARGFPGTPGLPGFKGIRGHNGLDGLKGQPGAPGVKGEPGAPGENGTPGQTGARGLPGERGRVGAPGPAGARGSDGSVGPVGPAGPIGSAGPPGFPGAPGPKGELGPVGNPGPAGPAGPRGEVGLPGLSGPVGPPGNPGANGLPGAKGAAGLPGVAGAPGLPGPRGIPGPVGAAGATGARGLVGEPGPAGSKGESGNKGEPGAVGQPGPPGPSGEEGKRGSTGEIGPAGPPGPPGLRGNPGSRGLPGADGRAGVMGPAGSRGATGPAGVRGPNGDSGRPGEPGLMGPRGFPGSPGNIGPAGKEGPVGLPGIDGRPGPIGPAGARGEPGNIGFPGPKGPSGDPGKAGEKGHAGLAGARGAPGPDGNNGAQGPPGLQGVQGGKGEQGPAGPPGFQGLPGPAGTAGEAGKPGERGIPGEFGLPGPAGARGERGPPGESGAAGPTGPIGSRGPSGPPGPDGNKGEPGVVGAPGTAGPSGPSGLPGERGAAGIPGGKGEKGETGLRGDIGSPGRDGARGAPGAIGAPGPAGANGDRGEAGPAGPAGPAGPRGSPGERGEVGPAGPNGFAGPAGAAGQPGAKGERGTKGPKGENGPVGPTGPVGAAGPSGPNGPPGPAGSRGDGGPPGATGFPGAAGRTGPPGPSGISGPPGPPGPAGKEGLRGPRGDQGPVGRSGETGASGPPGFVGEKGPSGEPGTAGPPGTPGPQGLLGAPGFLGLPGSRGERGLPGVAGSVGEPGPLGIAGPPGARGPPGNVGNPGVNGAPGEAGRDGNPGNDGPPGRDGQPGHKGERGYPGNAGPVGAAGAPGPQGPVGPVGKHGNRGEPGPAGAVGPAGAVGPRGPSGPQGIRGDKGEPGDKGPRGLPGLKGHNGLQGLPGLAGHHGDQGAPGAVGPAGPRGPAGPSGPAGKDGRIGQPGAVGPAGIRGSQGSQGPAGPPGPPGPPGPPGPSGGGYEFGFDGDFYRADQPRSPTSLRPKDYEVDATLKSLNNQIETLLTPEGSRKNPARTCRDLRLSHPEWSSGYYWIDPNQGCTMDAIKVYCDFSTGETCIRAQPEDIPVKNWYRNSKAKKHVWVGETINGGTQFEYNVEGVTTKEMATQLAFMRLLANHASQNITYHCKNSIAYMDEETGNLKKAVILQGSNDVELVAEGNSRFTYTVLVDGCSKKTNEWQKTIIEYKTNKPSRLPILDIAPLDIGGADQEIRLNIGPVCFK
# beta-lactoglobulin = molecular target: T1, beta-lactoglobulin (UniProt P02754); conditions: raw milk; 5' biotin; ELISA: suspension coated in 100 mM NaHCO3 pH 9.6, 5% CSA block, aptamer in Base Pair Aptamer Folding Buffer, washes 0.02% Tween-20 in PBS; microscopy: aptamer …
# T1 sequence: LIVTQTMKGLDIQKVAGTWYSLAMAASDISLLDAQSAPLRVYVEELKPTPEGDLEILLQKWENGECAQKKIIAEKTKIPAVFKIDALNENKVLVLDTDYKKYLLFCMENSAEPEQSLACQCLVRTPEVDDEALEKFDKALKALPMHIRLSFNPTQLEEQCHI
# [2] = tested on: parvalbumin (trout ('fish traut')); conditions: fish trout suspension; 5' biotin; ELISA: suspension coated in 100 mM NaHCO3 pH 9.6, 5% CSA block, aptamer in Base Pair Aptamer Folding Buffer, washes 0.02% Tween-20 in PBS; microscopy: aptamer …
# [3] = molecular target: T2, beta-casein / beta-casomorphin-7 (UniProt P02666); conditions: raw milk; 5' biotin; ELISA: suspension coated in 100 mM NaHCO3 pH 9.6, 5% CSA block, aptamer in Base Pair Aptamer Folding Buffer, washes 0.02% Tween-20 in PBS; microscopy: aptamer …
# T2 sequence: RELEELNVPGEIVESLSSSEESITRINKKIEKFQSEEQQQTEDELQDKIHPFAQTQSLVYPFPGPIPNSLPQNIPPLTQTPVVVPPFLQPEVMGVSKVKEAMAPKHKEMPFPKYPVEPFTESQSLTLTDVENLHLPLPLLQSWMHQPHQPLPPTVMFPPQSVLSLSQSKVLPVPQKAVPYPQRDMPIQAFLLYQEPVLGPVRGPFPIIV
# Chain of hemoglobin (P69905 2-142, chain 1 of 2): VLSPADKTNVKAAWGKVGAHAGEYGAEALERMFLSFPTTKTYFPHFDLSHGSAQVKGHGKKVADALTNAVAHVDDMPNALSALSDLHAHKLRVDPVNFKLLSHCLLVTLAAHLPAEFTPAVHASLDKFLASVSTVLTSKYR
# Chain of hemoglobin (P68871 2-147, chain 2 of 2): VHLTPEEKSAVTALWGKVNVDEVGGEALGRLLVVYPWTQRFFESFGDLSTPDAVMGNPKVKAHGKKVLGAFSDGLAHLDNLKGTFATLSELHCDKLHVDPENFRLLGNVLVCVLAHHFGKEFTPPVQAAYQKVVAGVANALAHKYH
sequence,measurement,setting,value
GGCAGGAAGACAAACACCAGGTGAGGGAGACGACGCGAGTGTTAGATGGTAGCTGTTGGTCTGTGGTGCTGT [Hb],binding signal,hemoglobin,0.388 OD405
CTAGGCGAAATATAGCTACAACTGTCTGAAGGCACCCAAT [Gli 1],binding signal,gluten (gliadin) (wheat),0.577 OD405
ATCCGTCACACCTGCTCTAGACGAATATTGTATCCTCATTAGATCAAAAACGGGTGGTGTTGGCTCCCGTAT [CTx 2R (CTx 2R-2h)],binding signal,[1],0.615 OD405
CCAGTCTCCCGTTTACCGCGCCTACACATGTCTGAATGCC [Gli 4],binding signal,gluten (gliadin) (wheat),0.519 OD405
TTAGCGAGCTGCACACACAATGGACTCGTCATACCGTGCTGTTT [HA],binding signal,hemoglobin,0.471 OD405
TTTTTGGTTGACGGCAGTCGGCGGTATGCGCATATCGTGTTGGTA [D1],binding signal,[1],0.4 OD405
CGACGATCGGACCGCAGTACCCACCCACCAGCCCCAACATCATGCCCATCCGTGTGTG [BLG14],binding signal,beta-lactoglobulin,0.394 OD405
TTTTTTTTGCCAAAGGAGGCGAGAGATAAAAGATTGCGAATCCATTCG [Par1],binding signal,[2],0.412 OD405
ACGCACACCAGAGACAAGTAGCCCCCCAAACGCG [G15 T1],binding signal,hemoglobin; signal at MilliQ control level,0.015 OD405
ATCCGTCACACCTGCTCTATACACATTGTGTTTACTCCCAGTTTTTTAGACTTATGGTGTTGGCTCCCGTAT [seqU5],binding signal,[3],0.51 OD405
